Reference: patent US20090074779A1 (COPENHAGEN UNIVERSITY, published 2009)

T1: P75 receptor (UniProt P08138 29-250, limits assumed)
T1 construct: also called p75NTR; p75(NTR)
T1 sequence (looked up): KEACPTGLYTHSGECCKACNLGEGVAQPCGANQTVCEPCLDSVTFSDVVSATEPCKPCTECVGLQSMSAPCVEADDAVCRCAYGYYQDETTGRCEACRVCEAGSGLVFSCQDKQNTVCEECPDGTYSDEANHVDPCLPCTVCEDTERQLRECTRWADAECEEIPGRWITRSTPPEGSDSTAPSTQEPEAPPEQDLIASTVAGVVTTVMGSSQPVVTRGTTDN

B1: BDNF-EE (peptide)
peptide: SYVRALTMDSKKRIGWR
notes: also called BDNF derived peptide BDNF-EE
B2: BDNF (ligand, UniProt P23560 129-247, looked up)
chain: HSDPARRGELSVCDSISEWVTAADKKTAVDMSGGTVTVLEKVPVSKGQLKQYFYETKCNPMGYTKEGCRGIDKRHWNSQCRTTQSYVRALTMDSKKRIGWRFIRIDTSCVCTLTIKRGR
notes: also called brain-derived neurotrophic factor

Experiments:
Assay in all cases: SPR (BIAlite), receptor amine-coupled on CM4 chip, ligand injected, 25 C
TrkC = target: T2, TrkC (UniProt Q16288 32-429, limits assumed)
T2 construct: also called NTRK3; TrkC receptor
Experimental: (§1) The TrkA, TrkB and TrkC receptors and p75^NTR were immobilized on a sensor chip, CM4, using an amine-coupling kit as follows: the chip was activated by 20 μl activation solution, N-hydroxysuccinimide, (NHS) and N-ethyl-N′-(3-[…])-carbodiimide (EDC), the protein was immobilized using 30 μl of a mixture of 4 μl (0.5 μg/ml) protein in 50 μl 10 mM sodium acetate buffer (pH 4.0); and the chip was blocked by 35 μl blocking solution (ethanolamine-HCl). The receptor surface was regenerated between ligand injections with 15 μl 2 mM NaCl or 10 mM glycine-HCl, pH 2.5. In the present experiments a flow rate of 5 μl/min was used.
(§2) The curve corresponding to the difference between binding to the Trk receptors or the […] receptor and a blank chip was used for analysis.

P75 receptor = target: T1, P75 receptor
Experimental: as §1, §2

TrkB = target: T3, TrkB (UniProt Q16620 32-430, limits assumed)
T3 construct: also called NTRK2; TrkB receptor
Experimental: as §1, §2

TrkA = target: T4, TrkA (UniProt P04629 34-413, limits assumed)
T4 construct: also called NTRK1; TrkA receptor
Experimental: as §1, §2

T3 sequence (Q16620 32-430 limits assumed): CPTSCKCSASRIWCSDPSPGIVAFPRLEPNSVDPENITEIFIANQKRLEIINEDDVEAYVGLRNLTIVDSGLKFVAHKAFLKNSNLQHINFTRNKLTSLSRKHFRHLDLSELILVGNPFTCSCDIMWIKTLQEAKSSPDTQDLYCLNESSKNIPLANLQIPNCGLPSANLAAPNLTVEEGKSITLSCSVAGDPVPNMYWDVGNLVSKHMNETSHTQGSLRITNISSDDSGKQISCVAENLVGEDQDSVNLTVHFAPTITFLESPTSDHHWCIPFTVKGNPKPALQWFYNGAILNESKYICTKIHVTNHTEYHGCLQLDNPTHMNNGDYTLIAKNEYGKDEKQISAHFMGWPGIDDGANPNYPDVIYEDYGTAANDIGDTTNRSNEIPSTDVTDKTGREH
T4 sequence (P04629 34-413 limits assumed): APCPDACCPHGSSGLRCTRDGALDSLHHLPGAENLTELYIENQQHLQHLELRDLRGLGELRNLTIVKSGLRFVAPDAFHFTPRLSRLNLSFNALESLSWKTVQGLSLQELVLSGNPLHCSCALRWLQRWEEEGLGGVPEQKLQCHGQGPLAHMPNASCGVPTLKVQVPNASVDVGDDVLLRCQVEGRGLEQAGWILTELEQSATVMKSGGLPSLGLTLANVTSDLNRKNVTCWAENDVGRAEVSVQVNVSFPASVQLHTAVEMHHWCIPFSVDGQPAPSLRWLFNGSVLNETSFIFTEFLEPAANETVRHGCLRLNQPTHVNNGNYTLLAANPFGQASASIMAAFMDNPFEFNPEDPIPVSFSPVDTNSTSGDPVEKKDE

Row | Binder | Kd (TrkC) [nM] | Kd (P75 receptor) [nM] | Kd (TrkB) [nM] | Kd (TrkA) [nM]
1 | CVLSRKAVRRA [NGF-C2] | 658 | 385 | 883 | 727
2 | TFVKALTMDGKQAAWR (also called NGF derived peptide NGF-EE) [NGF-EE] | 51.9 | 226 | 10.3 | 
3 | RGIDKRHWNSQ (also called BDNF derived peptide BDNF-E) [BDNF-E] | 697 | 556 | 173 | 
4 | B1 | 166 | 110 | 38.7 | 
5 | B2 |  | 0.0584 | 1.18 | 
6 | RGIDSKHWNSY (also called NGF derived peptide NGF-E) [NGF-E] | 1060 | 2600 | 254 | 
